Assay results from IntAct's records for PubMed 23288039.

B1: Serine/threonine-protein kinase Nek2 (Homo sapiens), P51955 (parent)
chain: MPSRAEDYEVLYTIGTGSYGRCQKIRRKSDGKILVWKELDYGSMTEAEKQMLVSEVNLLRELKHPNIVRYYDRIIDRTNTTLYIVMEYCEGGDLASVITKGTKERQYLDEEFVLRVMTQLTLALKECHRRSDGGHTVLHRDLKPANVFLDGKQNVKLGDFGLARILNHDTSFAKTFVGTPYYMSPEQMNRMSYNEKSDIWSLGCLLYELCALMPPFTAFSQKELAGKIREGKFRRIPYRYSDELNEIITRMLNLKDYHRPSVEEILENPLIADLVADEQRRNLERRGRQLGEPEKSQDSSPVLSELKLKEIQLQERERALKAREERLEQKEQELCVRERLAEDKLARAENLLKNYSLLKERKFLSLASNPELLNLPSSVIKKKVHFSGESKENIMRSENSESQLTSKSKCKDLKKRLHAAQLRAQALSDIEKNYQLKSRQILGMR

Variants of: B1
Conditions: with apc4_human ANAPC4, Q9UJX5
Sequence of apc4_human ANAPC4, Q9UJX5 (Q9UJX5 whole entry): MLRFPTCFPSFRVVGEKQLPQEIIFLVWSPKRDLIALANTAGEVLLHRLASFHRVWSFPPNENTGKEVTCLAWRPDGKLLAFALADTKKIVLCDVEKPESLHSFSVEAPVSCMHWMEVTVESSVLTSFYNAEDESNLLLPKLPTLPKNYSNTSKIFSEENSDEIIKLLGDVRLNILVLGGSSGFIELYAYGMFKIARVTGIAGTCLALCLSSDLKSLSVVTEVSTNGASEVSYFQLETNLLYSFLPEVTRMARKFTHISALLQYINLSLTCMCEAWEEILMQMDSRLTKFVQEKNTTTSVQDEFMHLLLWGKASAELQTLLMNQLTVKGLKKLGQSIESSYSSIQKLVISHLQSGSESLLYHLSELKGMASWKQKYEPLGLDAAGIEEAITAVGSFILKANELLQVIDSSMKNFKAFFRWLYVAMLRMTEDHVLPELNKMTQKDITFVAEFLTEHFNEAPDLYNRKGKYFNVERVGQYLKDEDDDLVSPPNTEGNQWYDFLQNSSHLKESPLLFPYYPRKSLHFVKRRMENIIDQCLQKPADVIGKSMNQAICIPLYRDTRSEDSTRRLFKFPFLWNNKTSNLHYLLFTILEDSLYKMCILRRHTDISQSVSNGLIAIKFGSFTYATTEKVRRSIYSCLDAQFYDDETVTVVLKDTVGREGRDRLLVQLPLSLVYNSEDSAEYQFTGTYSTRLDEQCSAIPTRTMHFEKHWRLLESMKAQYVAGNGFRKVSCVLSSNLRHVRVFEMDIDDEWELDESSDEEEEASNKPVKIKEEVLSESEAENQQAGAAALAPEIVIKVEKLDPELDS

Variant | effect of a mutation on the interaction
L320A | decreasing interaction
L313A | decreasing interaction
